Experimental data as given in US20240034757A1 (OXFORD UNIVERSITY INNOVATION, published 2024).
Read-outs that look alike come from different tables or passages of the source.

T1: CCL5_HUMAN (human, UniProt P13501 24-91)
T1 sequence: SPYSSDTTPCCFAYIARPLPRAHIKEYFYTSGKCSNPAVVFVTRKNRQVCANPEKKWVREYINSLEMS

T2: P467_RHIPU (Rhipicephalus pulchellus, UniProt L7M8Z8 22-127)
T2 sequence: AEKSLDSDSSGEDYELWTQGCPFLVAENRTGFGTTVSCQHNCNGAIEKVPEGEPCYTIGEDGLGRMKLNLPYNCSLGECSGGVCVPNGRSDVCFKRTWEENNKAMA

T3: P985_AMBPA (Amblyomma parvum, UniProt A0A023FT45 25-132)
T3 sequence: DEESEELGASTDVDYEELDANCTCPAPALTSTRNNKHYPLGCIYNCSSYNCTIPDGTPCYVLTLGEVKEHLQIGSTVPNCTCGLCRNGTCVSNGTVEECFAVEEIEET

T4: P1182_AMBMA (Amblyomma maculatum, UniProt G3MJ83 27-115)
T4 sequence: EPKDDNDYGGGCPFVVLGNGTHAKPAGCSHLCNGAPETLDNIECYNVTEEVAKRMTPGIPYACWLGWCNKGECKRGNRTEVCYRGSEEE

T5: P974_AMBCA (Amblyomma cajennense, UniProt A0A023FDY8 22-118)
T5 sequence: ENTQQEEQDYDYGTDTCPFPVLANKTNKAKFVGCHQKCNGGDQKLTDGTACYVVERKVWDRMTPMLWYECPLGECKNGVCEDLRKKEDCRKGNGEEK

T6: P1183_AMBTR (Amblyomma triste, UniProt A0A023G9N9 26-115)
T6 sequence: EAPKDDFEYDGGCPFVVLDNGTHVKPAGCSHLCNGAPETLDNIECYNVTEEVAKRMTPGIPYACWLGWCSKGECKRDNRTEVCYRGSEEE

T7: P546_AMBCA (Amblyomma cajennense, UniProt A0A023FBW7 22-118)
T7 sequence: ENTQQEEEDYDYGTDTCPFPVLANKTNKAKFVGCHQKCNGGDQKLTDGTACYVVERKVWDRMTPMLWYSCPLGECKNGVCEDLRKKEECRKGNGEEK

T8: P1243_AMBAM (Amblyomma americanum, UniProt A0A0C9S461 26-123)
T8 sequence: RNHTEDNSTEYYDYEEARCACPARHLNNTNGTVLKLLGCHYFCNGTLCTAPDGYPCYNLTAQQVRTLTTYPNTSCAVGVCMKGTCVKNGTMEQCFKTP

T9: P991_AMBCA (Amblyomma cajennense, UniProt A0A023FFD0 29-136)
T9 sequence: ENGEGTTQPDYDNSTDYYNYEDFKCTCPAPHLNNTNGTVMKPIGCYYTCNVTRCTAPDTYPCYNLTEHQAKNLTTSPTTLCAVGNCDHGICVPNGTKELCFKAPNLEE

T10: P1181_AMBMA (Amblyomma maculatum, UniProt G3MIX6 26-115)
T10 sequence: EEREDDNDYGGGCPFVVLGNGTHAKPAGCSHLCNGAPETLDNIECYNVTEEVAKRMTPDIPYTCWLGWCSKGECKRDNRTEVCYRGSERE

T11: P1180_AMBTR (Amblyomma triste, UniProt A0A023G6B6 26-116)
T11 sequence: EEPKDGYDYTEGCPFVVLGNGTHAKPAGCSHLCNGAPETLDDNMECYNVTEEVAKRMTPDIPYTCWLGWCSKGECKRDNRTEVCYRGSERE

T12: P672_RHIPU (Rhipicephalus pulchellus, UniProt L7MC74 22-125)
T12 sequence: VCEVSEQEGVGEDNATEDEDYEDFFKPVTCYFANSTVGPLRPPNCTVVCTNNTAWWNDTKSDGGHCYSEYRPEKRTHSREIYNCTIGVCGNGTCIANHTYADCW

T13: P1134_IXORI (Ixodes ricinus, UniProt A0A0K8RAI0 32-135)
T13 sequence: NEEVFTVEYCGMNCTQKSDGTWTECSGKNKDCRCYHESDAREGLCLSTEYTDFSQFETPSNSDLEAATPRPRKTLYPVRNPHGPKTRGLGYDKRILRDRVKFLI

T14: CXCL8_HUMAN (human, UniProt P10145 28-99)
T14 sequence: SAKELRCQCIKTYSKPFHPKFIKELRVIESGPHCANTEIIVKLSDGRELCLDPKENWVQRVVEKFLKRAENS

T15: CXCL6_HUMAN (human, UniProt P80162 38-114)
T15 sequence: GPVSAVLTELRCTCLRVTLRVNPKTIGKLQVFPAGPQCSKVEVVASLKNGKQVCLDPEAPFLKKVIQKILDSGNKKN

T16: CXCL5_HUMAN (human, UniProt P42830 41-114)
T16 sequence: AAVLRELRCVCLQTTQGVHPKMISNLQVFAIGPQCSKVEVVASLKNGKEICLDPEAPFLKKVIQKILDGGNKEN

T17: CXCL14_HUMAN (human, UniProt O95715 35-111)
T17 sequence: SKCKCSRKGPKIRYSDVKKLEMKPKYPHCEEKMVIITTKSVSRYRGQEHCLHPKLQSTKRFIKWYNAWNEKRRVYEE

T18: CXCL10_HUMAN (human, UniProt P02778 22-98)
T18 sequence: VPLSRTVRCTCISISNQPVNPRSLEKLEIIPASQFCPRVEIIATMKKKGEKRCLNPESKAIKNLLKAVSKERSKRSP

T19: CXCL13_HUMAN (human, UniProt O43927 23-109)
T19 sequence: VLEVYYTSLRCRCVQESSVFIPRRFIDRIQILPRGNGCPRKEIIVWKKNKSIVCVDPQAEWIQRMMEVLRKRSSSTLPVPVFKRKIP

T20: CXCL11_HUMAN (human, UniProt O14625 22-94)
T20 sequence: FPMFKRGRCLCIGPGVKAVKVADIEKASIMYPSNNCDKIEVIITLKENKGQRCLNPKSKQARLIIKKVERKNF

T21: CXCL7_HUMAN (human, UniProt P02775 59-128)
T21 sequence: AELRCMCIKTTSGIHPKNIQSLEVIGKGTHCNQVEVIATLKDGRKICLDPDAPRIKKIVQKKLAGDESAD

T22: CXCL4_HUMAN (human, UniProt P02776 32-101)
T22 sequence: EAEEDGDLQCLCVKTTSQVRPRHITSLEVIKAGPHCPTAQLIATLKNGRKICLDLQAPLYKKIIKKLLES

B1: P983_AMBCA (other)
chain: EDTGTEDDFDYGNTGCPFPVLGNYKSNMTKPVGCKNKCGSGYEVLNDTTPCYVIDQKVFNNMVPLRQYSKCPLGFCENGECKPNDQAEDCYKGREEQK
B2: CXCL9_HUMAN (ligand)
chain: TPVVRKGRCSCISTNQGTIHLQSLKDLKQFAPSPSCEKIEIIATLKNGVQTCLNPDSADVKELIKKWEKQVSQKKKQKNGKKHQKKKVLKVRKSQRSRQKKTT

How the values were obtained:
BK1.1FITC = assay: fluorescence polarisation, 50 nM peptide
CCL5_HUMAN = target: T1, CCL5_HUMAN; assay: yeast surface display FACS
P467_RHIPU = target: T2, P467_RHIPU; assay: BLI
P985_AMBPA = target: T3, P985_AMBPA; assay: BLI
P1182_AMBMA = target: T4, P1182_AMBMA; assay: BLI
P974_AMBCA = target: T5, P974_AMBCA; assay: BLI
P1183_AMBTR = target: T6, P1183_AMBTR; assay: BLI
P546_AMBCA = target: T7, P546_AMBCA; assay: BLI
P1243_AMBAM [1] = target: T8, P1243_AMBAM; assay: BLI
P991_AMBCA = target: T9, P991_AMBCA; assay: BLI
P983_AMBCA = target: B1; assay: BLI
P1181_AMBMA = target: T10, P1181_AMBMA; assay: BLI
P1180_AMBTR = target: T11, P1180_AMBTR; assay: BLI
P672_RHIPU = target: T12, P672_RHIPU; assay: BLI
P1243_AMBAM [2] = target: T8, P1243_AMBAM; assay: BLI; remark: listed apart in the source
CCL2_HUMAN = CCL2_HUMAN (human, UniProt P13500 24-99); assay: cell-based or functional assay
Chain of CCL2_HUMAN (P13500 24-99 limits assumed): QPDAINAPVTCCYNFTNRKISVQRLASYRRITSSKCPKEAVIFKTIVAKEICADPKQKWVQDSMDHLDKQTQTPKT

P1134_IXORI = target: T13, P1134_IXORI; assay: BLI
CXCL8_HUMAN [3] = target: T14, CXCL8_HUMAN; assay: yeast surface display FACS re-test
CXCL6_HUMAN = target: T15, CXCL6_HUMAN; assay: BLI [Cont.]
CXCL5_HUMAN = target: T16, CXCL5_HUMAN; assay: BLI [Cont.]
CXCL12_HUMAN = CXCL12_HUMAN (human, UniProt P48061 22-89); assay: BLI
Chain of CXCL12_HUMAN (P48061 22-89 limits assumed): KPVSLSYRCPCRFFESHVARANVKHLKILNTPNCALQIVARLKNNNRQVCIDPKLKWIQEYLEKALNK

CXCL14_HUMAN = target: T17, CXCL14_HUMAN; assay: BLI
CXCL10_HUMAN = target: T18, CXCL10_HUMAN; assay: BLI
CXCL9_HUMAN = target: B2; assay: BLI
CXCL13_HUMAN = target: T19, CXCL13_HUMAN; assay: BLI
CXCL11_HUMAN = target: T20, CXCL11_HUMAN; assay: yeast surface display FACS re-test
CXCL7_HUMAN = target: T21, CXCL7_HUMAN; assay: BLI [Cont.]
CXCL4_HUMAN = target: T22, CXCL4_HUMAN; assay: BLI [Cont.]
CXCL8_HUMAN [4] = target: T14, CXCL8_HUMAN; assay: BLI [Cont.]

Binder | binding result (BK1.1FITC) | Kd (P467_RHIPU) | Kd (P1182_AMBMA) | Kd (P974_AMBCA) | Kd (P546_AMBCA) | Kd (P1243_AMBAM [1]) | Kd (P991_AMBCA) | Kd (P983_AMBCA) | Kd (P1181_AMBMA) | Kd (P1180_AMBTR) | further results
CCL23_HUMAN (ligand) RVTKDAETEFMMSKLPLENPVLLDRFHATSADCCISYTPRSIPCSLLESYFETNSECSKPGVIFLTKKGRRFCANPSDKQVQVCMRMLKLDTRIKTRKN | no binding (tested: 1 µM) |  |  |  |  |  |  |  |  |  | 
P1063_AMBTR (other) QSEVGKNVPGCGDTETLEAPPQEKPPYYEYKDEEGCTQKVLESWFQAGERSTGRGQKKRGHGRRPSRVLRTVDCRKNCTVGITALPDGHLCLVPRGDPFTRGGAIKYGCYLGDCASGHCQHRYETVSCRLPAPDTTAKPYYVTPEK |  |  |  |  |  |  |  |  |  |  | binding result (CCL5_HUMAN): binds
CCL3L1_HUMAN (ligand) APLAADTPTACCFSYTSRQIPQNFIADYFETSSQCSKPSVIFLTKRGRQVCADPSEEWVQKYVSDLELSA | no binding (tested: 1 µM) | 0.524 nM | 9.5 nM | 13.1 nM | 15 nM | 5.05 nM | 1.4 nM | 2.1 nM | 3.3 nM | 2.2 nM | Kd (P985_AMBPA): 7.5 nM; Kd (P1183_AMBTR): 110 nM; Kd (P672_RHIPU): 2.7 nM; Kd (P1243_AMBAM [2]): 5.04 nM
B1 |  |  |  |  |  |  |  |  |  |  | IC50, THP1 cell migration (CCL2_HUMAN): 5.95 nM
CCL13_HUMAN (ligand) not shown | no binding (tested: 1 µM) | 2.56 nM | 56 nM | 22.9 nM | 13 nM | 0.788 nM | 0.419 nM | 17 nM | 19 nM | 9 nM | Kd (P985_AMBPA): 89 nM; Kd (P1183_AMBTR): 5.7 nM
B2 |  |  |  |  |  |  |  |  |  |  | binding result (P1134_IXORI): no binding (tested: 300 nM)
P1170_IXORI (other) LGDEDQLFSVEYCGTNCTQQDDGKWTPCSGKNGKCKCYHEDGKRYGLCLYTEYTDFSQYPNPEGSEIENTRPRP |  |  |  |  |  |  |  |  |  |  | % cells over threshold fluorescence (CXCL8_HUMAN [3]): 81%; binding result (CXCL6_HUMAN): no binding (tested: 300 nM); binding result (CXCL5_HUMAN): no binding (tested: 300 nM); binding result (CXCL12_HUMAN): no binding (tested: 300 nM); binding result (CXCL14_HUMAN): no binding (tested: 300 nM); binding result (CXCL10_HUMAN): no binding (tested: 300 nM); binding result (CXCL9_HUMAN): no binding (tested: 300 nM); binding result (CXCL13_HUMAN): no binding (tested: 300 nM)
CCL14_HUMAN (ligand) TESSSRGPYHPSECCFTYTTYKIPRQRIMDYYETNSQCSKPGIVFITKRGHSVCTNPSDKWVQDYIKDMKEN | no binding (tested: 1 µM) | 4.13 nM | 50 nM | 49.1 nM | 28 nM | 0.816 nM | 0.43 nM | 81 nM | 47 nM | 4.4 nM | Kd (P672_RHIPU): 5.5 nM
P1090_IXORI (other) GSKELSGPESSENSIEAAFCDTNCTEGTDGVWSGCSAGCFCVHVGNSTVGRCMTFNGVDGG |  |  |  |  |  |  |  |  |  |  | % cells over threshold fluorescence (CXCL11_HUMAN): 32%; binding result (CXCL7_HUMAN): no binding (tested: 300 nM); binding result (CXCL4_HUMAN): no binding (tested: 300 nM); binding result (CXCL8_HUMAN [4]): no binding (tested: 300 nM); Kd (CXCL5_HUMAN): 43 nM; binding result (CXCL12_HUMAN): no binding (tested: 300 nM); binding result (CXCL14_HUMAN): no binding (tested: 300 nM); binding result (CXCL9_HUMAN): no binding (tested: 300 nM)
